Data published in article doi:10.1101/2025.05.13.653810, “Spatial control of secretory vesicle targeting by the Ync13–Rga7–Rng10 complex during cytokinesis” (bioRxiv, 2025).

Target: T1, MBP-Ync13–6xHis (S. pombe, UniProt O13683 1-1237)
T1 construct: Ync13, the S. pombe homolog of Munc13/UNC-13; full-length cDNA between MBP-TEV-GGSGGS and the 6His tag of pET21a; MBP is followed by a TEV site and a GGSGGS linker; also called MBP-Ync13–6His; not shown: MBP, N-terminal, kept; His6, C-terminal, kept
T1 sequence (looked up): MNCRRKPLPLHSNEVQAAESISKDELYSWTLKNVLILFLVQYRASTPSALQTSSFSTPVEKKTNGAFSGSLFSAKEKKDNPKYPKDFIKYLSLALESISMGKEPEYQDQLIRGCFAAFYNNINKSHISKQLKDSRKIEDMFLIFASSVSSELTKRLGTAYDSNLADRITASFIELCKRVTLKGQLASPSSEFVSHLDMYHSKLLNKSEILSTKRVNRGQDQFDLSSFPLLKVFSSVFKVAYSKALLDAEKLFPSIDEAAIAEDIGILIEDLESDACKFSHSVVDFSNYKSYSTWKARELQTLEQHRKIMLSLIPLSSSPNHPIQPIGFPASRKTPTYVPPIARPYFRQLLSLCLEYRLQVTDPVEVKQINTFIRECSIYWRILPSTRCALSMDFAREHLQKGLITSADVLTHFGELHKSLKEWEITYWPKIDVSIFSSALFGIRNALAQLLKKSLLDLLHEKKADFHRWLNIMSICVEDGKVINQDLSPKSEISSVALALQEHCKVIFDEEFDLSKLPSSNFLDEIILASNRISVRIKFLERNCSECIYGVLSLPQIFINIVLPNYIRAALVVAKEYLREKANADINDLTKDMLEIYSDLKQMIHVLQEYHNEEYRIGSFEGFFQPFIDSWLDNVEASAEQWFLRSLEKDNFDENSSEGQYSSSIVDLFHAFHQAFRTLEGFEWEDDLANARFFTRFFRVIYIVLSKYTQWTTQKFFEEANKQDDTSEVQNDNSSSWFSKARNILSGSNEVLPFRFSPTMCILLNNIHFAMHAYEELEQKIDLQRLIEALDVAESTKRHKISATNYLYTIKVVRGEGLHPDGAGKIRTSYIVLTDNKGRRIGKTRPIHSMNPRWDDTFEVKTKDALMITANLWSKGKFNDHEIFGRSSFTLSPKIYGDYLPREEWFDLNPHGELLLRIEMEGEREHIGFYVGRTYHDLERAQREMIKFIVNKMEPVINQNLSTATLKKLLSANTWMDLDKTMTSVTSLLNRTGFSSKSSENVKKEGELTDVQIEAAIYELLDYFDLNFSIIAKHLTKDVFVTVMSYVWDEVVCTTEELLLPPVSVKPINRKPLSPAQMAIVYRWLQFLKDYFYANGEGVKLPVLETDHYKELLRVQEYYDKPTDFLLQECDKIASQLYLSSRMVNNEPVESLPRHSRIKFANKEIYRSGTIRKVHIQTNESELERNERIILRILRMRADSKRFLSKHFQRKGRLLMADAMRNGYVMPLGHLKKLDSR
Test: supernatant depletion assay; Rga7–6xHis at 4 μM titrated with MBP-Ync13–6xHis immobilized on Cobalt beads; beads pelleted at 16,000 g, supernatants on Coomassie-stained SDS-PAGE, bound fraction fitted
Conditions: both partners purified

B1: Rga7–6xHis (natural protein, S. pombe, UniProt O94466 1-695, looked up)
chain: MLSAPSSSTTPASPPTSPPNTTSSDDFAVLKEPKVEAILNSELGLAILNDRIKDYLLTCKELAGFFKKRSILEEESGKNLQKLAKSYLETFQSKHHSPQSFSASVITSMEIHEQLANHSLTLQKTLSAFSDQVIEFHKNAERKRKSIKEYAKKQENAYLEAVMQMDKSKSRFKGAETEYNRALDNKNTGDSQKKVGFFKPKSNAQLTKLEDEARLKAENAESDMHSKIENAQNVQKQLLCIHRPNYIKQFFSLQREIESSLIANYLRYTKLCESNTLLNGLTIRPQKPTPTNCGLQHALDNINANTDFVQYVLHASIKHEDNKNPTDASKTKIIQPPSSYGTGSSAGKTNPPVNPTIKVTAAIPSPLQNTNPAPSTFPNPSVASPAFPNSSTSNPSTAPASASPLASTLKPSTANDTNGSSSSSSSNPRTSSPLASNAENKPPVAQQSPPVLLPTLPPIQTTTIQTSREVAPPPSSINSNRAASPFRPTSVSPQPSSPTKSLLFGARLDAIILREHSNIPNIVMQCTSQVENFGLNLQGIYRVPSSSARVNMLRSQFENNPLLQLHTPEDYENDVHAVADLLKIFFRELREPLIPDNHQRDFIDAGNVEDESRRRDAVHRAINDLPDANYSTIRHLTIHLAKIKENSDVNKMSTNNLAIIWGPTIIKQATIPEISSFSRTIEILIDYCFTIFDYD
notes: Rga7, F-BAR protein and Rho2 GAP of S. pombe; full length, cloned into pET21a between the T7 tag and the 6His tag; also called Rga7–6His; not shown: His6, C-terminal, kept
Kd: 10 µM
